PMC7954794, “Protein context shapes the specificity of SH3 domain-mediated interactions in vivo” (Nature Communications, 2021)

Tested on: Abp1 PPIs
Test: DHFR-PCA of Abp1 SH3-swapped baits (Fig. 2B-D, S2C, S2F);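 for Protein-protein interaction distance between Abp1 SH3-swapped baits, to ABP1: Euclidean distance between DHFR-PCA score profiles of the baits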;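 for Protein-protein interaction distance between Abp1 SH3-swapped baits, to BEM1-2: Euclidean distance between DHFR-PCA score profiles of the baits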;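 for Protein-protein interaction distance between Abp1 SH3-swapped baits, to BOI1: Euclidean distance between DHFR-PCA score profiles of the baits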;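 for Protein-protein interaction distance between Abp1 SH3-swapped baits, to BZZ1-1: Euclidean distance between DHFR-PCA score profiles of the baits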
Type: cell-based, Saccharomyces cerevisiae
In short: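 Interactions were scored by DHFR protein-fragment complementation. DHFR F[1,2]-tagged Abp1 strains, whose SH3 was swapped for yeast or human ortholog domains, were crossed on YPD at 30 °C for 48 h with a 1536-format array of 575 prey-DHFR F[3] strains and 40 negatives, giving four replicates per pair. PCA selection lasted 4 days after double diploid selection.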

[1] = number of PPIs, difference, Abp1 SH3-swapped with the listed SH3, Fig2D,S2F

B1: BBC1: yeast SH3-containing protein; SH3-deleted or knockout strain (protein, UniProt P47068 1-1157, looked up)
Myosin tail …: MSEPEVPFKVVAQFPYKSDYEDDLNFEKDQEIIVTSVEDAEWYFGEYQDSNGDVIEGIFPKSFVAVQGSEVGKEAESSPNTGSTEQRTIQPEVEQKDLPEPISPETKKETLSGPVPVPAATVPVPAATVPVPAATAVSAQVQHDSSSGNGERKVPMDSPKLKARLSMFNQDITEQVPLPKSTHLDLENIPVKKTIVADAPKYYVPPGIPTNDTSNLERKKSLKENEKKIVPEPINRAQVESGRIETENDQLKKDLPQMSLKERIALLQEQQRLQAAREEELLRKKAKLEQEHERSAVNKNEPYTETEEAEENEKTEPKPEFTPETEHNEEPQMELLAHKEITKTSREADEGTNDIEKEQFLDEYTKENQKVEESQADEARGENVAEESEIGYGHEDREGDNDEEKEEEDSEENRRAALRERMAKLSGASRFGAPVGFNPFGMASGVGNKPSEEPKKKQHKEKEEEEPEQLQELPRAIPVMPFVDPSSNPFFRKSNLSEKNQPTETKTLDPHATTEHEQKQEHGTHAYHNLAAVDNAHPEYSDHDSDEDTDDHEFEDANDGLRKHSMVEQAFQIGNNESENVNSGEKIYPQEPPISHRTAEVSHDIENSSQNTTGNVLPVSSPQTRVARNGSINSLTKSISGENRRKSINEYHDTVSTNSSALTETAQDISMAAPAAPVLSKVSHPEDKVPPHPVPSAPSAPPVPSAPSVPSAPPVPPAPPALSAPSVPPVPPVPPVSSAPPALSAPSIPPVPPTPPAPPAPPAPLALPKHNEVEEHVKSSAPLPPVSEEYHPMPNTAPPLPRAPPVPPATFEFDSEPTATHSHTAPSPPPHQNVTASTPSMMSTQQRVPTSVLSGAEKESRTLPPHVPSLTNRPVDSFHESDTTPKVASIRRSTTHDVGEISNNVKIEFNAQERWWINKSAPPAISNLKLNFLMEIDDHFISKRLHQKWVVRDFYFLFENYSQLRFSLTFNSTSPEKTVTTLQERFPSPVETQSARILDEYAQRFNAKVVEKSHSLINSHIGAKNFVSQIVSEFKDEVIQPIGARTFGATILSYKPEEGIEQLMKSLQKIKPGDILVIRKAKFEAHKKIGKNEIINVGMDSAAPYSSVVTDYDFTKNKFRVIENHEGKIIQNSYKLSHMKSGKLKVFRIVARGYVGW
- Protein-protein interaction distance between Abp1 SH3-swapped baits, to ABP1 (Abp1 bait with swapped SH3, distance to bait with ABP1 SH3, sheet Fig2C): 7.08
- Protein-protein interaction distance between Abp1 SH3-swapped baits, to BBC1 (distance to Abp1 bait with BBC1 SH3, sheet Fig2C): 0.00
- Protein-protein interaction distance between Abp1 SH3-swapped baits, to BEM1-1 (distance to Abp1 bait with BEM1-1 SH3, sheet Fig2C): 12.07
- Protein-protein interaction distance between Abp1 SH3-swapped baits, to BEM1-2 (distance to Abp1 bait with BEM1-2 SH3, sheet Fig2C): 30.95
- Protein-protein interaction distance between Abp1 SH3-swapped baits, to BOI1 (distance to Abp1 bait with BOI1 SH3, sheet Fig2C): 9.448
- Protein-protein interaction distance between Abp1 SH3-swapped baits, to BOI2 (distance to Abp1 bait with BOI2 SH3, sheet Fig2C): 12.67
- Protein-protein interaction distance between Abp1 SH3-swapped baits, to BUD14 (distance to Abp1 bait with BUD14 SH3, sheet Fig2C): 15.23
- Protein-protein interaction distance between Abp1 SH3-swapped baits, to BZZ1-1 (distance to Abp1 bait with BZZ1-1 SH3, sheet Fig2C): 7.773
- Protein-protein interaction distance between Abp1 SH3-swapped baits, to BZZ1-2 (distance to Abp1 bait with BZZ1-2 SH3, sheet Fig2C): 9.168
- Protein-protein interaction distance between Abp1 SH3-swapped baits, to CDC25 (distance to Abp1 bait with CDC25 SH3, sheet Fig2C): 24.45
- Protein-protein interaction distance between Abp1 SH3-swapped baits, to CTTN (distance to Abp1 bait with CTTN SH3, sheet Fig2C): 6.802
- Protein-protein interaction distance between Abp1 SH3-swapped baits, to CYK3 (distance to Abp1 bait with CYK3 SH3, sheet Fig2C): 25.11
- Protein-protein interaction distance between Abp1 SH3-swapped baits, to DBNL (distance to Abp1 bait with DBNL SH3, sheet Fig2C): 7.329
- Protein-protein interaction distance between Abp1 SH3-swapped baits, to FUS1 (distance to Abp1 bait with FUS1 SH3, sheet Fig2C): 16.64
- Protein-protein interaction distance between Abp1 SH3-swapped baits, to HCLS1 (distance to Abp1 bait with HCLS1 SH3, sheet Fig2C): 6.39
- Protein-protein interaction distance between Abp1 SH3-swapped baits, to HOF1 (distance to Abp1 bait with HOF1 SH3, sheet Fig2C): 29.63
- Protein-protein interaction distance between Abp1 SH3-swapped baits, to HSE1 (distance to Abp1 bait with HSE1 SH3, sheet Fig2C): 7.295
- Protein-protein interaction distance between Abp1 SH3-swapped baits, to LSB1 (distance to Abp1 bait with LSB1 SH3, sheet Fig2C): 13.47
- Protein-protein interaction distance between Abp1 SH3-swapped baits, to LSB3 (distance to Abp1 bait with LSB3 SH3, sheet Fig2C): 13.63
- Protein-protein interaction distance between Abp1 SH3-swapped baits, to MYO3 (distance to Abp1 bait with MYO3 SH3, sheet Fig2C): 13.06
- Protein-protein interaction distance between Abp1 SH3-swapped baits, to MYO5 (distance to Abp1 bait with MYO5 SH3, sheet Fig2C): 12.56
- Protein-protein interaction distance between Abp1 SH3-swapped baits, to NBP2 (distance to Abp1 bait with NBP2 SH3, sheet Fig2C): 14.24
- Protein-protein interaction distance between Abp1 SH3-swapped baits, to PEX13 (distance to Abp1 bait with PEX13 SH3, sheet Fig2C): 10.86
- Protein-protein interaction distance between Abp1 SH3-swapped baits, to PIN3 (distance to Abp1 bait with PIN3 SH3, sheet Fig2C): 11.25
- Protein-protein interaction distance between Abp1 SH3-swapped baits, to RVS167 (distance to Abp1 bait with RVS167 SH3, sheet Fig2C): 9.304
- Protein-protein interaction distance between Abp1 SH3-swapped baits, to SDC25 (distance to Abp1 bait with SDC25 SH3, sheet Fig2C): 31.85
- Protein-protein interaction distance between Abp1 SH3-swapped baits, to SLA1-1 (distance to Abp1 bait with SLA1-1 SH3, sheet Fig2C): 27.19
- Protein-protein interaction distance between Abp1 SH3-swapped baits, to SLA1-2 (distance to Abp1 bait with SLA1-2 SH3, sheet Fig2C): 16.91
- Protein-protein interaction distance between Abp1 SH3-swapped baits, to SLA1-3 (distance to Abp1 bait with SLA1-3 SH3, sheet Fig2C): 13.32
- Protein-protein interaction distance between Abp1 SH3-swapped baits, to YSC84 (distance to Abp1 bait with YSC84 SH3, sheet Fig2C): 14.14
- PPIs gained by Abp1 - SH3-dependent PPIs gained by Abp1 [1]: 2
- SH3-dependent PPIs - SH3-dependent PPIs gained by Abp1 [1]: 19
- SH3-dependent PPIs gained by Abp1 (number of PPIs, Abp1 SH3-swapped with the listed SH3, DHFR-PCA, Fig2D,S2F): 0
- Interactions in Abp1 (number of interactions of Abp1 carrying the named SH3, sheet FigS2A-B): 78
